Results reported in patent publication US7947462 (dated 2011).

Key:
[1] = molecular target: DKK1-AP; test: Scatchard analysis, cell binding (transfected 293T); panel b
[2] = molecular target: DKK2-AP; test: as above
[3] = molecular target: DKK1-AP; test: Scatchard analysis, cell binding (transfected 293T); panel d, Kd2 (low-affinity site)
[4] = molecular target: DKK2-AP; test: Scatchard analysis, cell binding (transfected 293T); panel e, Kd2 (low-affinity site)
[5] = molecular target: DKK2-AP; test: Scatchard analysis, cell binding (transfected 293T); panel e, Kd1 (high-affinity site)
[6] = molecular target: DKK1-AP; test: Scatchard analysis, cell binding (transfected 293T); panel d, Kd1 (high-affinity site)

B1: mkrm1 (receptor)
chain: ARPAPGPRSGPECFTANGADYRGTQSWTALQGGKPCLFWNETFQHPYNTLKYPNGEGGLGEHNYCRNPDGDVSPWCYVAEHEDGVYWKYCEIPACQMPGNLGCYKDHGNPPPLTGTSKTSNKLTIQTCISFCRSQRFKFAGMESGYACFCGNNPDYWKHGEAASTECNSVCFGDHTQPCGGDGRIILFDTLVGACGGNYSAMAAVVYSPDFPDTYATGRVCYWTIRVPGASRIHFNFTLFDIRDSADMVELLDGYTHRVLVRLSGRSRPPLSFNVSLDFVILYFFSDRINQAQGFAVLYQATKEEPPQERPAVNQTLAEVITEQANLSVSAAHSSKVLYVITPSPSHPPQTAPGSHSWAPSVGANSHRVEGWTVYGLATLLILTVTAVVAKILLHVTFKSHRVPASGDLRDCRQPGASGDIWTIFYEPSTTISIFKKKLKGQSQQDDRNPLVSD
- Kd [1]: 0.28 nM
- Kd [2]: 0.35 nM

B2: mkrm2 (receptor)
chain: GSLHSPGLSECFQVNGADYRGHQNYTGPRGAGRPCLFWDQTQQHSYSSASDPQGRWGLGAHNFCRNPDGDVQPWCYVAETEEGIYWRYCDIPTCHMPGYLGCFVDSGAPPALSGPSGTSTKLTVQVCLRFCRMKGYQLAGVEAGYACFCGSESDLARGRPAPATDCDQICFGHPGQLCGGDGRLGIYEVSVGSCQGNWSAPQGVIYSPDFPDEYGPDRNCSWVLGQLGAVLELTFRLFELADSRDRLELRDVSSGNLLRAFDGAHPPPPGPLRLRTAALLLTFRSDARGHAQGFALTYRGLQDTVEGRASPEDSTESLAGDPDGANASCSPKPGAAQASIGARVFSTVTAFSVLLLLLLSLLRLLRRRSCLLAPGKGSLAMGPSRGPGRSWAVWYRRPRGVALPCPPGDSQAEGPAAGYRPLSASSQSSLRSLVSAL
- Kd [3]: 2.6 nM
- Kd [4]: 3 nM
- Kd [5]: 0.36 nM
- Kd [6]: 0.3 nM
